The target of data set [1] is Msh2-msh6(3MBD) (Saccharomyces cerevisiae) (UniProt P25847+Q03834). Kind of data set: BLI. Conditions: BLI: 25 mM Tris-HCl pH 7.5, 1 mM EDTA, 100 mM NaCl, 0.1 mg/mL BSA, 1 mM DTT, 0.05% Tween-20; DNA 7.5 nM (30 nM for Msh2-Msh6); temperature not stated; no ….
The next data set concerns the target Msh2-Msh3 (Saccharomyces cerevisiae, UniProt P25847;P25336 1-964;1-1018). Kind of data set: BLI; BLI: 25 mM Tris-HCl pH 7.5, 1 mM EDTA, 100 mM NaCl, 0.1 mg/mL BSA, 1 mM DTT, 0.05% Tween-20; DNA 7.5 nM (30 nM for Msh2-Msh6); temperature not stated; no nucleotide or Mg2+ listed. As to conditions: protein: recombinant, copies: 1;1, label: 5' biotin on bottom strand.

Another data set has as its target Msh2-Msh6 (Saccharomyces cerevisiae, UniProt P25847;Q03834 1-964;1-1242). The data set is described as above. Conditions: protein: recombinant, copies: 1;1, label: 5' biotin on bottom strand.
Setting [2] is: as printed, bottom strand has 1 extra nt (T opposite missing A after CTAGG of top; possible misprint), described as homoduplex.
The mark [3] stands for this setting: blunt, extrahelical (CAG)10 quasi-hairpin in top strand.
The mark [4] stands for this setting: blunt, 8-nt extrahelical loop in top strand.
Where [5] appears, read: blunt, extrahelical (CTG)10 quasi-hairpin in top strand.

Msh2-msh6(3MBD) (Saccharomyces cerevisiae), sequence (P25847 whole entry, chain 1 of 2): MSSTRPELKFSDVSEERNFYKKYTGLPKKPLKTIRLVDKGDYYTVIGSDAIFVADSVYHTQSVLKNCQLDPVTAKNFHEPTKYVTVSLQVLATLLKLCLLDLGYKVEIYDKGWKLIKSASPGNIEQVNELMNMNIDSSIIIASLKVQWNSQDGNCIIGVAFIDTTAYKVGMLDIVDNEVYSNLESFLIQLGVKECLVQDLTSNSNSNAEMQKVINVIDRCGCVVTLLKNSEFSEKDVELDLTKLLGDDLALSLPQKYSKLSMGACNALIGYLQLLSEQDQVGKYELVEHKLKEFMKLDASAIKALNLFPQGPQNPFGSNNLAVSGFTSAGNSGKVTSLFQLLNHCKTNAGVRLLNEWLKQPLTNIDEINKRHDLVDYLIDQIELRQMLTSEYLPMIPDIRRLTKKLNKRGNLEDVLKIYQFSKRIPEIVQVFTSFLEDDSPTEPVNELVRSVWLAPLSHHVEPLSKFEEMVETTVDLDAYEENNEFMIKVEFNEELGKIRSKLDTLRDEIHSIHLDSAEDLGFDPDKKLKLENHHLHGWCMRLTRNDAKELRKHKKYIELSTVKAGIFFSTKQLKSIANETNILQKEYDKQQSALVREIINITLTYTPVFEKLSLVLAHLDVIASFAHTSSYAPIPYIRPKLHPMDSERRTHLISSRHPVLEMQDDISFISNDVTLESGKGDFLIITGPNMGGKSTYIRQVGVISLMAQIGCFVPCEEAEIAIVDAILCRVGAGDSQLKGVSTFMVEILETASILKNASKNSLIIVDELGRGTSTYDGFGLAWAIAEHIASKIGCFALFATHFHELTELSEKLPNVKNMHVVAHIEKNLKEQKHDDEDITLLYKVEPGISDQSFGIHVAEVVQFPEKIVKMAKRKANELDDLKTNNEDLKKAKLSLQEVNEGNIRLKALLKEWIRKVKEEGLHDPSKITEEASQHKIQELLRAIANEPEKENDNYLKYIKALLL
Msh2-msh6(3MBD) (Saccharomyces cerevisiae), sequence (Q03834 whole entry, chain 2 of 2): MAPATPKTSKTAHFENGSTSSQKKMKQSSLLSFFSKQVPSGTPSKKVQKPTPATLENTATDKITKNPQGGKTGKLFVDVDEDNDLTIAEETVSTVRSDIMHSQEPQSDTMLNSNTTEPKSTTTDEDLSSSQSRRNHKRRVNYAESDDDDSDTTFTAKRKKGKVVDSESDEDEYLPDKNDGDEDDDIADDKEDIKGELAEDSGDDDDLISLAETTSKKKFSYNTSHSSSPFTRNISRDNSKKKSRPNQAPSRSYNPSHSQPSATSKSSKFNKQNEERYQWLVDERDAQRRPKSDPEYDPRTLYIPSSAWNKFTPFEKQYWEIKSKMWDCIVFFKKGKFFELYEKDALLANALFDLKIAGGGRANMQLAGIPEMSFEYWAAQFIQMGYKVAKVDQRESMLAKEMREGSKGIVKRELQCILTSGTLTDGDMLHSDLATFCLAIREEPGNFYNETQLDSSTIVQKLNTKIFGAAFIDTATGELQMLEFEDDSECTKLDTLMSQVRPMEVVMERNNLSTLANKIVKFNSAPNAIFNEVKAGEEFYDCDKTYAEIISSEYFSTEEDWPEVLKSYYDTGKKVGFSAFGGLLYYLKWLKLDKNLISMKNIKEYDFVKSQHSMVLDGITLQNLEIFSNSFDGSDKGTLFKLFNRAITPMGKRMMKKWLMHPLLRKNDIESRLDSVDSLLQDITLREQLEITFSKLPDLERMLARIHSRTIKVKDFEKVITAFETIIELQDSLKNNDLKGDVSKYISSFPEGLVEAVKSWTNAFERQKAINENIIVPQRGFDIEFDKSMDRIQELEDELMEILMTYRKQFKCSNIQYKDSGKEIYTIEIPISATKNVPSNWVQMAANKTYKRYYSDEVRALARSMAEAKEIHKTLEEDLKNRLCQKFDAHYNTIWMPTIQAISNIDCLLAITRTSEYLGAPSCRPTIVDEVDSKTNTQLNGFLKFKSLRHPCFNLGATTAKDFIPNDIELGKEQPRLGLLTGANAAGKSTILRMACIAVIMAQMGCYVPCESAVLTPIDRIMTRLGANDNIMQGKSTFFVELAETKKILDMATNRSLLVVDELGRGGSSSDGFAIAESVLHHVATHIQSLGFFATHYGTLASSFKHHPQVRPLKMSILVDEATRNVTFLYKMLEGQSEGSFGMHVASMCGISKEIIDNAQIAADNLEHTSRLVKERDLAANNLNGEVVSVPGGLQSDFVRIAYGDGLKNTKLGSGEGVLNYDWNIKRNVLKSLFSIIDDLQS
Msh2-Msh6, sequence (P25847 whole entry, chain 1 of 2): as the sequence (P25847 whole entry, chain 1 of 2) above
Msh2-Msh6, sequence (Q03834 whole entry, chain 2 of 2): as the sequence (Q03834 whole entry, chain 2 of 2) above
Msh2-Msh3, sequence (P25847 whole entry, chain 1 of 2): as the sequence (P25847 whole entry, chain 1 of 2) above
Msh2-Msh3, sequence (P25336 whole entry, chain 2 of 2): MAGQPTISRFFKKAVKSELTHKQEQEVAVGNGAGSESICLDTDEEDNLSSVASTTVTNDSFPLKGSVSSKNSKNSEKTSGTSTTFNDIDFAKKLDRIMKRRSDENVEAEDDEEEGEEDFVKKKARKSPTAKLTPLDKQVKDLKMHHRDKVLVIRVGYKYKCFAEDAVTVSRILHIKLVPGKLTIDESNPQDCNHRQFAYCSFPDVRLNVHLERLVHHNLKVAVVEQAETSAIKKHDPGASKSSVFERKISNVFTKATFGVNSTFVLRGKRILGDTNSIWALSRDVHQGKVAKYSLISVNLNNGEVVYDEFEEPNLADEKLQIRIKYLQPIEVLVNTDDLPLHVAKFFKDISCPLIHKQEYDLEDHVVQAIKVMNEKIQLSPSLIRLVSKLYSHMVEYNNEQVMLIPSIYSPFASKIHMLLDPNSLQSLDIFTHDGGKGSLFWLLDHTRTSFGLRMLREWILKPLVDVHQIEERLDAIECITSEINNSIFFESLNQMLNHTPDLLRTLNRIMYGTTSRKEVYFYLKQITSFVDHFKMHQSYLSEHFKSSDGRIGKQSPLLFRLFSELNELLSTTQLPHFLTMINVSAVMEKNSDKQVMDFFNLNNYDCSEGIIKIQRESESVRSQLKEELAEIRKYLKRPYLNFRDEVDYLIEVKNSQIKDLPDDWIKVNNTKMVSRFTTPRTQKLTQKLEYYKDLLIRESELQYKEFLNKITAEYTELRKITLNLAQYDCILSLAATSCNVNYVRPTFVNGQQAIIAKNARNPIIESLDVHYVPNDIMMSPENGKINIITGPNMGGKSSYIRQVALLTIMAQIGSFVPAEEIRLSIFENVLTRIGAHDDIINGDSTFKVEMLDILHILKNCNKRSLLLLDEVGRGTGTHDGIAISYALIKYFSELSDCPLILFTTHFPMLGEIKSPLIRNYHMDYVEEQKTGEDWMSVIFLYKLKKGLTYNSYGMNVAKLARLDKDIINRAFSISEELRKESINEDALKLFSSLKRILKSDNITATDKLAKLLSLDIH

With “CACGCTACCGAATTCTGACTTGCTAGCTGCTGCTGCTGCTGCTGCTGCTGCTGCTGGACATCTTTGCCCACGTTGACCC / GGGTCAACGTGGGCAAAGATGTCCTAGCAAGTCAGAATTCGGTAGCGTG [(CTG)10 (LS-CTG/LS2-Bio)]”, the Kd – broadly, a measure of binding affinity in units of concentration – in data set [1] worked out at 1.05 nM. For the molecule “CACGCTACCGAATTCTGACTTGCTAGGCATCTTTGCCCACGTTGACCC / GGGTCAACGTGGGCAAAGATGTCCTAGCAAGTCAGAATTCGGTAGCGTG [Homoduplex (LS1/LS2-Bio)]”, the dissociation constant (Kd) in data set [1] was 7.16 nM. Same read-out and setting: the same measure for “CACGCTACCGAATTCTGACTTGCTAGGTGTGTGTGACATCTTTGCCCACGTTGACCC / GGGTCAACGTGGGCAAAGATGTCCTAGCAAGTCAGAATTCGGTAGCGTG [+8 loop, (GT)4 (LS8/LS2-Bio)]”: 0.872 nM; for “CACGCTACCGAATTCTGACTTGCTAGCAGCAGCAGCAGCAGCAGCAGCAGCAGCAGGACATCTTTGCCCACGTTGACCC / GGGTCAACGTGGGCAAAGATGTCCTAGCAAGTCAGAATTCGGTAGCGTG [(CAG)10 (LS-CAG/LS2-Bio)]”: 2.37 nM.

B1: Homoduplex (LS1/LS2-Bio) (dsDNA)
DNA 1: CACGCTACCGAATTCTGACTTGCTAGGCATCTTTGCCCACGTTGACCC
DNA 2: GGGTCAACGTGGGCAAAGATGTCCTAGCAAGTCAGAATTCGGTAGCGTG
On to B1, for which the Kd was 9.22 nM with Msh2-Msh3 (setting [2]) and 21 nM with Msh2-Msh6 (setting [2]).

B2: (CAG)10 (LS-CAG/LS2-Bio) (dsDNA)
DNA 1: CACGCTACCGAATTCTGACTTGCTAGCAGCAGCAGCAGCAGCAGCAGCAGCAGCAGGACATCTTTGCCCACGTTGACCC
DNA 2: B1 DNA 2
With B2, the Kd with Msh2-Msh3 (setting [3]) was 1.38 nM; with Msh2-Msh6 (setting [3]), 2.73 nM.

B3: +8 loop, (GT)4 (LS8/LS2-Bio) (dsDNA)
DNA 1: CACGCTACCGAATTCTGACTTGCTAGGTGTGTGTGACATCTTTGCCCACGTTGACCC
DNA 2: B1 DNA 2
As for B3, the Kd with Msh2-Msh3 (setting [4]) stood at 2.62 nM; in the data set with Msh2-Msh6 (setting [4]), 8.67 nM.

B4: (CTG)10 (LS-CTG/LS2-Bio) (dsDNA)
DNA 1: CACGCTACCGAATTCTGACTTGCTAGCTGCTGCTGCTGCTGCTGCTGCTGCTGCTGGACATCTTTGCCCACGTTGACCC
DNA 2: B1 DNA 2
Take B4: the dissociation constant (Kd) with Msh2-Msh3 (setting [5]) turned out to be 2.25 nM; in the data set with Msh2-Msh6 (setting [5]), 3.07 nM.

These data come from article PMC11912836, “Msh2-Msh3 DNA-binding is not sufficient to promote trinucleotide repeat expansions in Saccharomyces cerevisiae”.
